Results: the supplement of paper PMC10567573

B1: INTS3 (parent)
chain: FHPIKETVVEEPVDITPYLDQLDE
B2: KCNAB2 (parent)
chain: SSIIHEIDSILGNKPYSKKDYRS

Variants of: B1
Assay: protein stability index of a GFP-peptide fusion (GPS, HEK-293T) (PSI 1-6); higher = more stable
Settings: c terminus: a fixed tail appended
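Also: lentivirally expressed fusions sorted by FACS into six bins by GFP to DsRed ratio, PSI derived from sequencing read proportions per bin multiplied by bin number.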

Protein stability index, by site and new letter:
E24: Y 2.47

Variants of: B2
Assay: as above
Settings: c terminus: native

Protein stability index of substitutions, site by site:
S1: A 2.43; C 2.47; D 3.67; E 2.82; F 2.06; G 3.04; H 2.46; I 2.67; K 3.55; L 2.13; M 1.8; N 3.97; P 3.28; Q 2.94; R 2.78; T 2.6; V 2.34; Y 1.59
S2: A 2.89; C 2.22; D 3.81; E 4.02; F 2.4; G 3.2; H 2.31; I 1.72; K 1.66; L 1.77; M 1.98; N 3.43; P 3.68; Q 3.07; R 3.13; T 3.75; V 1.89; W 2.66; Y 2.24
I3: A 3.94; C 3.85; D 4.67; E 4.16; F 2.83; G 4.46; H 4; K 2.78; L 2.9; M 3.17; N 4.2; P 3.96; Q 2.53; R 4.09; S 4.63; T 4.58; V 3.61; W 1.72; Y 3.17
I4: A 3.44; C 3.6; D 4.28; E 3.9; F 1.29; G 2.69; H 2.86; K 2.81; L 2.56; M 2.59; N 4.51; P 4.63; Q 4.26; R 2.94; S 3.25; T 3.95; V 2.46; W 1.4; Y 2.75
H5: A 3.83; C 2.42; D 3.7; E 2.7; F 2.21; G 3.07; I 1.48; K 3.83; L 2.21; M 1.76; N 3.44; P 3.09; Q 3.02; R 3.64; S 2.98; T 3.6; V 2.38; W 2.2; Y 2.05
E6: A 1.72; C 1.94; D 2.97; F 3.61; G 2.82; H 2.31; I 2.01; K 3.21; L 3.25; N 3.65; P 2.9; Q 2.62; R 2.26; S 2.66; T 2.23; V 3.15; W 3.44; Y 1.69
I7: A 4.65; C 4.15; D 4.4; E 4.51; F 2.71; G 4.45; H 3.97; K 3.45; L 2.86; M 2.75; N 4.63; P 4.47; Q 4.42; R 3.86; S 4.38; T 4.7; Y 4.53
D8: A 2.06; C 1.59; E 2.16; G 2.41; H 2.06; K 2.07; N 2.69; P 2.77; Q 3.06; R 2.84; S 2.45; T 2.25; V 2.57; Y 2.14
S9: A 2.48; D 2.89; E 3.66; F 1.75; G 3.66; H 2.8; I 2.08; K 3.54; L 2.38; M 2.2; N 2.94; P 3.81; Q 3.19; R 2.58; T 3.41; V 2.53; W 2.9; Y 2.24
I10: A 4.13; C 3.79; D 4.05; E 3.45; F 2.32
